According to publication PMC4800795:

T1: endogenous IRF3 of HEK293T cells (human (endogenous in HEK293T)), Q14653
T1 chain: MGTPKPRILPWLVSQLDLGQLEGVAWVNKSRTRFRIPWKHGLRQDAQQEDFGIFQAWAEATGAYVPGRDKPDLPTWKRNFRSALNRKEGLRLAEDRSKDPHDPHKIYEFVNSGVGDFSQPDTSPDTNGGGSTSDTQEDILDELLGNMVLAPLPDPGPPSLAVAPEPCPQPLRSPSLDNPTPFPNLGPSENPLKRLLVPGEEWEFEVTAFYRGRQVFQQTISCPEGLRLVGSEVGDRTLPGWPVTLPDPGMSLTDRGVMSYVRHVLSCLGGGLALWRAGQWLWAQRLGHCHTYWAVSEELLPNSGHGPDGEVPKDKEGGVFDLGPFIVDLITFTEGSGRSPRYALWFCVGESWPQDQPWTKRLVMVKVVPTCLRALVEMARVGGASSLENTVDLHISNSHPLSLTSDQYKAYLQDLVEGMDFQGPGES

T2: GFP-tagged wild-type IRF3 (IRF3-WT-GFP), in HEK293T cells, Q14653
T2 chain: T1 chain

B1: endogenous IRF3 of HEK293T cells, Q14653 1-427 (natural protein)
chain: T1 chain
B2: GFP-tagged wild-type IRF3 (IRF3-WT-GFP), in HEK293T cells, Q14653 1-427 (natural protein)
chain: T1 chain

What was measured:
[1] = biological target: T1, endogenous IRF3 of HEK293T cells (human …); test: native gel or EMSA; native PAGE (deoxycholate in the cathode buffer, on ice) of HEK293T lysates, Western blot; cells stimulated with poly(I·C) 10 μg/ml for 12 h, with or without Flag-FAF1; conditions: remark: other sources report otherwise
[2] = biological target: T2, GFP-tagged wild-type IRF3 …; test: as above; conditions: remark: other sources report otherwise

| Binder | stoichiometry N [1] | stoichiometry N [2] |
| --- | --- | --- |
| B1 | 2 |  |
| B2 |  | 2 |
